Source: a protein production outcome set (Wang et al. 2014)

Assay: label from the status in PepcDB records

Sequence: MDIYIGFSLQIYVIQVRRKPTENLQKTYKKSGNGILFICLIANCEICGTNLLTSELYIPTFTSKTKVMKKRVSAVVIVLVCLGGVACIKTLSTSSVGLPQLAFDNIEALASGESSAYRCYGIGDVDCHGDKVDKMYSGYSLK
- protein production: failed

Sequence: MACFSSLSTGVLDMYDLIIVGGGPSGASAGRVAGKAGISTLLIEKENFPRYKPCGGALSPYALSCLDFKLPEYLIEKDISRIRVHFRELCTEMQKDYSIALLVSRKAFDNFLLDKARETGIDIHSGEKVLDCEEGEECVEVRTSQNTYLAKFVLIAEGSEGVLKYSVRKRKDRRTEYDLALVSEIPERDKVIRKRFPNAIDMHFGIASGGYGWIFPHSEHYSVGIVGTAEHLKHPKAVMQDFLQANGFSGDFQVHSHIIPVGGIKRKTISSRILLSGDAAGFVDAFIGEGISYAIRSGQLAAENVAEIVLYNRKLSDLKEYETSCRKEFGNFLSSSLKLEKAMHRFPETSFRLALSRKEIIDKYLEEVVINRSHKDYVRWLLLNFSLSEPASKIKSIKDKNQLEHHHHHH
- protein production: failed

Sequence: MDLTISNELTGEIYGPIEVSEDMALTDLIALLQADCGFDKTKHDLYYNMDILDSNRTQSLKELGLKTDDLLLIRGKISNSIQTDAATLSDEAFIEQFRQELLNNQMLRSQLILQIPGLNDLVNDPLLFRERLGPLILQRRYGGYNTAMNPFGIPQDEYTRLMANPDDPDNKKRIAELLDQQAIDEQLRNAIEYTPEMFTQVPMLYINIEINNYPVKAFVDTGAQTTIMSTRLAKKTGLSRMIDKRFIGEARGVGTGKIIGRIHQAQVKIETQYIPCSFTVLDTDIDVLIGLDMLKRHLACVDLKENVLRIAEVETSFLSEAEIPKSFQEGLPAPTSVTTSSDKPLTPTKTSSTLPPQPGAVPALAPRTGMGPTPTGRSTAGATTATGRTFPEQTIKQLMDLGFPRDAVVKALKQTNGNAEFAASLLFQ
- protein production: failed

Sequence: MKPLSARQQQVLQATVHHYVDTMEPVGSRTLVQRFGIPASSATVRSAMGALEKRGLLTQPHTSAGRIPSALGYRCYVDDLLPEPGVAVQHLERELTGLSLRWAALDDLLQQLARRLTDFTGLMSLITRPQQPRAQLEAIRLVQSGDRLLVMLVEDSGRASHLNLRLPPGASDELTAIERWTDQQLEDGSINWRSLPPQLQRSGDVLRSALDHPSMSPETPLVVHGLSRLVAEPEFHSTAELRPLLELIDDQPCAVVSATDQPGVWIGEEHPQKALQACSVVQAPYRCGQEGVGQVALVGPMRMAYATAHAAVQRVARHLDLLLN
- protein production: failed

Sequence: MFEFILQLSLGILAVSTFLYVLRVIKGPSIPDRVVALDAIGINLIGITALVSILLNTTAYLEVILLIGILAFIGTVAFSKFLEKGEIIENDRSR
- protein production: failed

Sequence: MALPPYDPNFKFAFSLGTIAKHQDYDESASAAVVALDLISSARFALKLDSVYTEYSAKYVVDNAAGSHSGRKLTVKDCLEFALNKGGIPKAEDWPRLGSVITPPSSYKPDLVSMKGQVIEPQTIEEACDMVVDQPVGAKLHVFKPHIELQQDASAITGIYCGTSGEPASYVGLRDAIIVGVEKIQGKSIGTVKVWYKKFIFLKVAMSRWFQLYSPDGTHTGIKRTDYLVDFCVPRLSMD
- protein production: failed

Sequence: MDMTYNMRNAMASSRNMEEPQYDMSTIDLTQNSMNTNYLMNGSVLTNAYNNDYIVNNRDKYTGDMISQLKIDQGIPTYSHTLPMNGTTLADTNDSLNIQGMMRTNMDTTGFDGYSHIMNYNNTQNTIQTNPITYRMEDYNNLNNDVMYINPTTGEKFSAEYVNNIPTNDSDNMLYSNNFKNNSINMNTLLNSHYNNLPYPMPIYESMNNPQMYMQHMNQKQTVNIPLQHGEKKSAARNISTVNKRRIKTKKFFPCC
- protein production: failed

Sequence: MVKMAKMANKFKELDRTAEEKYKKGRISFRVGRFEDALAAYGEAASAWKEMADLLFDKGKETRGKEFLEKARDAKSCYGMALFKLERYEEALEIVDADLKLKPENPTRWSNRGFVLSALGRNEEALEAFEKALAFDPKSPKILTSQGIVYFKMGFLKKSLETFDRALATEPRKASDWACKIPRFSFFSRNKAPIMKPDNIETWYWKGNVLLELGEKEKALNSFRKALESDPDHLNSLLSGGDLLCEFAEYGEAFKCYVRALKLSPGNEAAEKGKEFCEAKINE
- protein production: failed

Sequence: MKRIHVRYKQIRRFFLLLGLVIIAAYVAFVLYRYWDHWLLLSNPQKAIENFEQQFRSENLFNFLVLTVLTSLTAAIPFLSSSVLSVFNGVVFGPWIGVLMNTIGNILGHFFLIQMMSRVDLTERDSKFNHHLERLSQIKNPYLALTLGYMIPFIPSFLVDYMVLDTKIPWHRWLPCLTLGVIPTSILYAFGGHAIIAGNMKQLILIVLLALILLAIYKRFEKKKG
- protein production: failed

Sequence: MSHVSYAEPPAQGWDIHCHTVFSDGTETPRTLVEQARKLGLHGVAIADHDTTAGWDEATEASEEIGLPLLLGTEITAVDEDVSVHMLAFQYDPSNEHISSMFANTRAARLRRTKRMVERLSQDFPITWDDVLAQVKEGERTTIGRPHIADALVAAGVYETRSDAFADAVSAKSKYYIPTPSPSTHEVIAAVKGAGGVVVAAHAGDPQRNRRLLSDEQLDAMIADGLDGLEVWHRGNPPEQRERLLTIAARHDLLVTGGSDWHGKGKPNGLGENLTDDDTVREILCRGVDLIGRVGSSHAA
- protein production: not failed

Sequence: MPAFVTFGRILFAVLFIYTGATKLFAIQATADFIATKVVVPDIIAPYAKQIETATAMTTPQLLAIAVGALEIIAGLMIALNFGARFFAMLLIVYVAVATVLFYDFWNLAAPDNAKMLVDALKNLSIIGALCMIIGYGRATRPVEAAYGDV
- protein production: failed

Sequence: MAAVGSGGYARNDAGEKLPSVMAGVPARRGQSSPPPAPPICLRRRTRLSTASEETVQNRVSLEKVLGITAQNSSGLTCDPGTGHVAYLAGCVVVILDPKENKQQHIFNTARKSLSALAFSPDGKYIVTGENGHRPAVRIWDVEEKNQVAEMLGHKYGVACVAFSPNMKHIVSMGYQHDMVLNVWDWKKDIVVASNKVSCRVIALSFSEDSSYFVTVGNRHVRFWFLEVSTETKVTSTVPLVGRSGILGELHNNIFCGVACGRGRMAGSTFCVSYSGLLCQFNEKRVLEKWINLKVSLSSCLCVSQELIFCGCTDGIVRIFQAHSLHYLANLPKPHYLGVDVAQGLEPSFLFHRKAEAVYPDTVALTFDPIHQWLSCVYKDHSIYIWDVKDINRVGKVWSELFHSSYVWNVEVYPEFEDQRACLPSGSFLTCSSDNTIRFWNLDSSPDSHWQKNIFSNLAPALQMCGRGHSRQPNTPSPGEIAS
- protein production: failed

Sequence: MPKSVRAENISRILKRIMKSPVSRVELAEELGLTKTTVGEIAKIFLEKGIVVEEKDSPKGVGRPTKSLKISPNCAYVLGIEVTRDEIAACLIDASMNILAHEAHPLPSQSDREETLNVMYRIIDRAKDMMEKLGSKLSALTVAAPGPIDTERGIIIDPRNFPLSQIPLANLLKEKYGIEVWVENDADMGAVGEKWYTKRDDSFAWILTGKGIGAGIIIDGELYRGENGYAGEIGYTRVFNGNEYVFLEDVCNENVVLKHVLSMGFSSLAEARDSGDVRVKEYFDDIARYFSIGLLNLIHLFGISKIVIGGFFKELGENFLKKIKIEVETHLLYKHSVDMSFSKVQEPVIAFGAAVHALENYLERVTTS
- protein production: not failed

Sequence: MITIDPEYFEILKEFGAERVVRCYQCGTCTGICPVSTTDASFPRKPVLLSRFGVGEVIENFEEAWLCLSCNLCTEFCPRDVKPSETMLAIKRVLVENGKTPPYIRDFFQNIMKQKNPWGIGKFKREDWVKKSDVEVPKVKDNPEYEWLWFVGCAHAFENRNINVTLKMARILSDLGINFATLGREEGCCGNDVRRAGEEGLFEVLMEENIKTFGKYGVQRLFTHSPHCFNAFKNWYEGYEVKLFLEILRDAIKSGKLELKNKLDLTVTYHDSCYLGRYNGIYDLPREVLKLIPGVELVEMKSNRRMSLCCGGGAGNIVGDYPGEIQPARVRAQEAAETGANVLAVACPFCLLMLEDGVKTEKLDKQLVVKDIVELVYEAAYGEE
- protein production: failed

Sequence: MGSGPTGLRGTGRQLLALERDVLVLSVAMFAFSLGFQMTSRYIPRYMSVLGAGAVAIGLFGAFGNLISALYPYPGGAVSDRIGSRTALTLFGLLSTAGFLIWLFADAFGTVVVPPVGTEREVFGREVVIGWLEPAVVPVGIFLGLVFAQAWKSFGLGATFAIVKQSVSPDQLATGFASTETFRRTAFLLGPLLAAGILAVFTFEVGFRIVLAVAAAFGLVATLAQHFLYDASEDTLGKSFAGVSAVVDDLRSMPSELRPLLVADTLVRFGNGMVYVFFIIVVTEFLEVGVSLPVVGRLSPDAYFGVLLAIEMLVALLIMLPVSRLSRRVGLKPVVAVGFAVYAIFPAVLIYAPDNAAVLALLFAVSGLRFAGLPAHKALIVGPAESGSGGRVTGSYYLVRNVVVIPSAAIGGAIYAVSPETAFLTATAIGLAGLVVFLAFGREFEAAVAG
- protein production: failed

Sequence: MSLNGKTMFISGASRGIGLAIAKRAAQDGANIALIAKTAEPHPKLPGTVYTAAKELEEAGGQALPIVGDVRDPESVEAAVAKTVEQFGGIDICVNNASAINLGPITEVPMKRFDLMNGIQVRGTYAVSQACIPHLKGRENPHILTLSPPVLLGKEWLKPTAYMMAKFGMTLCALGIAEEMREAGIASNTLWPRTLVATAAVQNLLGGDEAMGRARKPEVYSDAAYVILNKPAREFTGNMLLCEDVLVESGVTDLSVYNCVPGSQLGVDFWVDGVNPPGYTGP
- protein production: failed

Sequence: DLLDPETWQFIRDSARHFPPDSDRLPLAEQRALHAGLCRAFRAPLPPDVTLTDRTFGTRPCRLYEPAAPAGTVLFLHGGGFVLGGLDAFDDLCAEIAAGTGLRTVAVDYRLAPEYPHPEDFHDALRAAQAVAQAFPGPLVLMGEDAGGALSASFAHALRGRRALAGQVLVCPMLGGALDRVSALTHATAPMLSRQDVLRMGALRHGGREPAADPTADALRDTDFRGLPPTLIVTAQCDPLTDDGRAYRDAIRAAAGRARWIEEPGLVHGFLRARHRVPRAAASFARILQAASAMAHDR
- protein production: failed

Sequence: MDPNKVEISRLEALPQDLLREIVAKIGVKSAEDYHNCILSCKELGASANDERVLKTLNLALLVKKPLSCRKHLLIMKKCLANNNPDAHYIKGIIWYFNLDHCDVDLHHIGIAANGGQKEAIYMYAMLLLCRGRTEEGKTYMSQLEWAKTPPWLKRVGNKSKLH
- protein production: failed

Sequence: MGKGGDIVVGNGKKYAAPLLVLGCVVFGLGSLIVRSVPVGSYAIAFWRLLISVFVFWFLARFFRQKFPKNRKTVRYALTAGVFLAFDLALWHESIHAVGPGISTLLNSLQIFFLSAIGVFFFGERLSGLKKAGLISAVAGVAMIAGAEFGYNGNAVWGFASGLVSGLMLALSMVFVRKTHEIEPVALFPSMMILSLGGAVSLVVPALLMDGGALYPTTWKDAGLVLVYGVVMQCFAWAMVAYAIPLLSLSLTGLLLLSEPVAALFIDYFGLGKPIEGVQWAGVALTLSAIYLGSLKRQSSH
- protein production: failed

Sequence: MQLLPGPVRRFAAWCAVILLASGVVYVAIRLCVEFRTAVTPALLALLGTALLRPLHARLVKAHVQRSLAAGLTCAAVLAVVGGAVYIVVSALVETGDQIVTSLRDAAQGIADHFGAAGTSLDDLASNARELLGKFGGTAASGVVTGISVVGEMIAMAVLALLLVFFFLRDSDRAVTTVRALAPPGGADTVEAVARRAFGAVEGFMRGTTLIALIDAFCITVGLLVLRVPGAVGLGALVFVGAYIPYLGAFISGAVAVLVALADRGFVIALWALGVVLAVQVLEGHVLQPMIQSRTVQMHPAVVLLALTAGASVAGILGMLLAVPLTAAAFGVVHELQARYGVSTAASGPDAGPAPSTGAADS
- protein production: failed
